According to paper PMC10115415:

Columns and labels:
[1] = molecular target: MLL1 third plant homeodomain (PHD3) (UniProt Q03164); assay: ITC; conditions not given (table S1, fig. S2)
[2] = molecular target: Cyp33 RRM∆α/MLL1 PHD3 complex (UniProt Q9UNP9); assay: ITC; conditions not given (table S1, fig. S2)
[3] = molecular target: Histone H3 H3K4me3 (Homo sapiens) (UniProt P68431); settings: cited from earlier work
H3(1-13)K4me3 peptide = assay: ITC; settings: NMR titrations: 20 mM KHPO4 pH 7, 40 mM KCl, 1 mM DTT, 289.15 K as printed (table S2 says 298.15 K for Kd); structures of complexes: 40 mM KCl, 20 mM KH2PO4 pH …

Chain of MLL1 third plant homeodomain (PHD3) (Q03164 1564-1627): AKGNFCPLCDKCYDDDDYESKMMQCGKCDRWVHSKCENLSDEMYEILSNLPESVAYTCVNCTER
Chain of MLL1 PHD3-BRD (Q03164 1566-1784): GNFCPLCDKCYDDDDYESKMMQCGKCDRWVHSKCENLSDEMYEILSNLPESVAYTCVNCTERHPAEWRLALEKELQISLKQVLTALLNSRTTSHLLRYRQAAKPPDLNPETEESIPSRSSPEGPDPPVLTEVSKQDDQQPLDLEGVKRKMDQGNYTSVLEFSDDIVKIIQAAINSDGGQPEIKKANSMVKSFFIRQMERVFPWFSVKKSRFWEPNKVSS

Kd [1] [µM] | Substance | also measured
7 | Cyp33 K83A mutant | 
7 | Cyp33 KRK83-88A triple mutant | 
7 | Cyp33 W101A, L102A, F105A triple mutant (Cyp33-WLF) | 

Further lines, the substance ahead of its results:

Substance | Kd [1] [µM] | also measured
Cyp33 RK86-88A double mutant | 7 | 
Cyp33 RNA recognition motif (RRM) with the C-terminal extension (α3 helix) (from UniProt Q9UNP9 1-114) (domain or fragment) | 4.6 | 
Histone H3 lysine N6-trimethylated peptide (H3K4me3) (from UniProt P68431 2-14) |  | Kd [2]: 24 µM
MLL1 PHD3-BRD (from UniProt Q03164) |  | Kd [3]: 4 µM
UAAUGUUAAUGUUAAUGUUAAUGU [4x UAAUGU repeat RNA] |  | Kd (H3(1-13)K4me3 peptide): 30 µM
